How the values were obtained:
[1] = molecular target: BRD4 first bromodomain (BRD4/BD1) (human) (UniProt O60885); test: ITC; peptide titrated into BRD4/BD1 or BRD4/BD2 in the cell; 50 mM HEPES pH 7.5 (at 25°C), 150 mM NaCl, 15°C, stirring at 1,000 rpm; single-site binding model
[2] = molecular target: BRD4 second bromodomain (BRD4/BD2) (human) (UniProt O60885); test: as above
[3] = molecular target: BRD4 first bromodomain (BD1), N44-E168 (human) (UniProt O60885); test: ITC; peptide in the syringe titrated into protein in the cell; 15 °C; 50 mM HEPES pH 7.5, 150 mM NaCl; single binding site model
[4] = molecular target: BRD4 second bromodomain (BD2), D334-E460 (human) (UniProt O60885); test: as above
[5] = molecular target: BRD4 first bromodomain (BRD4/BD1), hexa-His tag cleaved (human) (UniProt O60885); test: ITC; peptide (1226 - 1433 μM) in the syringe, protein (36 - 59 μM) in the cell, 15°C, 50 mM HEPES pH 7.5, 150 mM NaCl, single binding site model
[6] = molecular target: BRD4 first bromodomain (BD1), N44-E168 (human) (UniProt O60885); test: ITC; salt series: 15 °C, 1000 mM NaCl; the sheet's heads give [Protein] 1042 uM and [Peptide] 42 uM
[7] = molecular target: BRD4 first bromodomain (BD1), N44-E168 (human) (UniProt O60885); test: ITC; temperature series: 5 °C, 150 mM NaCl; the sheet's heads give [Protein] about […] and [Peptide] about 45 uM
[8] = molecular target: BRD4 first bromodomain (BD1), N44-E168 (human) (UniProt O60885); test: ITC; temperature series: 20 °C, 150 mM NaCl; [Protein] about 1050-1063 uM and [Peptide] 42-46 uM
[9] = molecular target: BRD4 first bromodomain (BD1), N44-E168 (human) (UniProt O60885); test: ITC; temperature series: 25 °C, 150 mM NaCl; [Protein] about 1050-1063 uM and [Peptide] 42-46 uM
[10] = molecular target: BRD4 first bromodomain (BD1), N44-E168 (human) (UniProt O60885); test: ITC; salt series: 15 °C, 300 mM NaCl; the sheet's heads give [Protein] 1055 uM and [Peptide] 45 uM
[11] = molecular target: BRD4 second bromodomain (BRD4/BD2) (human) (UniProt O60885); test: ITC; peptide titrated into BRD4/BD1 or BRD4/BD2 in the cell; 100 mM Na3PO4 pH 8.0, 150 mM NaCl, 15°C, stirring at 1,000 rpm; single-site binding model
[12] = molecular target: BRD4 first bromodomain (BD1), N44-E168 (human) (UniProt O60885); test: ITC; salt series: 15 °C, 450 mM NaCl; the sheet's heads give [Protein] 1085 uM and [Peptide] 45 uM
[13] = molecular target: BRD4 first bromodomain (BD1), N44-E168 (human) (UniProt O60885); test: ITC; peptide titrated into protein; 100 mM Na3PO4 pH 8.0, 150 mM NaCl; single binding site model
[14] = molecular target: BRD4 second bromodomain (BD2), D334-E460 (human) (UniProt O60885); test: as above
[15] = molecular target: BRD4 first bromodomain (BD1), N44-E168 (human) (UniProt O60885); test: ITC; temperature series: 30 °C, 150 mM NaCl; [Protein] about 1050-1063 uM and [Peptide] 42-46 uM
[16] = molecular target: BRD4 first bromodomain (BD1), N44-E168 (human) (UniProt O60885); test: ITC; temperature and salt series: 15 °C, 150 mM NaCl; the sheet's heads give [Protein] about 1060 uM and [Peptide] 42-51 uM
BRD4 BD2, 334-460 = BRD4 BD2, 334-460 (UniProt O60885); test: isothermal titration calorimetry; settings: reference: H3 K9ac/K14ac peptide
BRD4 BD1, 44-168 = BRD4 BD1, 44-168 (UniProt O60885); test: isothermal titration calorimetry; settings: reference: H3 K9ac/K14ac peptide

Row | Substance | Kd [1] [µM] | Kd [2] [µM] | Kd [3] [µM] | stoichiometry N [3] | Kd [4] [µM] | stoichiometry N [4] | also measured
1 | GATA1 K312ac/K315ac peptide | 24.6 | 62.9 | 24.6 | 0.94 | 62.9 | 0.96 | 
2 | SRPK1 (K585acY) peptide used for ITC |  |  |  |  |  |  | Kd [5]: 9.9 µM
3 | SRPK1 K585ac/K588ac peptide |  |  |  |  |  |  | Kd [6]: 71.4 µM; stoichiometry N [6]: 0.96; Kd [7]: 49 µM; stoichiometry N [7]: 1.01; Kd [8]: 48.8 µM; stoichiometry N [8]: 1.14; Kd [9]: 40.2 µM; stoichiometry N [9]: 1.12; Kd [10]: 48.5 µM; stoichiometry N [10]: 1.02; Kd [11]: 29.7 µM; Kd [12]: 58.5 µM; stoichiometry N [12]: 1.01; stoichiometry N [13]: 0.92; Kd [14]: 29.7 µM; stoichiometry N [14]: 1.11; Kd [15]: 46.3 µM; stoichiometry N [15]: 1.12; Kd [16]: 45.7 µM; stoichiometry N [16]: 1.16
4 | histone H3 (from UniProt P68431) H3 K9ac/pS10/K14ac peptide |  |  |  |  |  |  | binding against the reference (BRD4 BD2, 334-460; sites S10): lost; binding against the reference (BRD4 BD1, 44-168; sites S10): same
5 | histone H3 (from UniProt P68431) H3 K9ac/pT11/K14ac peptide |  |  |  |  |  |  | binding against the reference (BRD4 BD2, 334-460; sites T11): lost; binding against the reference (BRD4 BD1, 44-168; sites T11): lost

Now from value to substance, other results behind:

Row | Kd [1] [µM] | Kd [2] [µM] | Kd [3] [µM] | stoichiometry N [3] | Kd [4] [µM] | stoichiometry N [4] | Substance | also measured
6 | 87.7 | 25.3 | 87.7 | 0.99 | 25.3 | 0.49 | ATRX K1030ac/K1033ac peptide | 
7 | 45.8 | 34.8 | 45.8 | 0.9 | 34.8 | 0.56 | E2F1 K117ac/K120ac peptide | 
8 |  |  | 15.8 | 0.52 | 44.4 | 0.87 | SIRT7 K272ac/K275ac peptide | 
9 | 19.5 | 63.3 | 19.5 | 0.85 | 63.3 | 0.51 | TOP2A K1201ac/K1204ac peptide | 
